Experiments:
Assay type in all cases: cell-based
human iPS cells [1] = assay: Cell Adhesiveness Evaluation 2 (synthetic peptide inhibition of cell adhesion to natural vitronectin); conditions: 100 μM synthetic peptide
Protocol: Polypeptides listed in Table 7 were synthesized by Emoc solid phase synthesis. A surface to which natural vitronectin was adsorbed at a concentration of 130 pmol/m^2, and thereafter, a cell suspension to which 100 μM of the above-described synthetic peptide was added was seeded at a rate of 30,000 cells/well. The number of adherent cells after 24 h post seeding was calculated by the same technique as in <Cell Adhesiveness Evaluation 1>.

human iPS cells [2] = assay: Proliferation Evaluation of iPS cells on polypeptide-coated plate; conditions: for The Number (%) of Cells after 3 Days: 5000 cells/well
Protocol: The iPS cells collected in the same manner as in <Cell Adhesiveness Evaluation 1>described above were seeded on a 96-well plate, to which RCP-1, RCP-11, and the natural human vitronectin were adsorbed, at a rate of 250 cells/well, and were cultured in a 5% CO2 incubator at 37° C. for 8 days. The number of adherent cells after each lapse of time was measured by the same method as in <Cell Adhesiveness Evaluation 1> described above, to obtain proliferation curves, The proliferation curves were indicated in FIG. 2. In FIG. 2, a black rhombus represents an example in which RCP-1 was used, while a black tetragon represents an example in which RCP-11 was used.
Similarly, each of samples from […] was prepared so as to have an addition concentration listed in Table 8 with each of from RCP-1 to RCP-10, and RCP-17, and Human Recombinant Laminin-511 as a reference, was seeded on a 96-well plate, to which each polypeptide was adsorbed, at a rate of 5000 cells/well in the same manner as in<Cell Adhesiveness Evaluation 1> described above, and was cultured in a CO2 incubator at 37° C. for 3 days. The number of cells after the 3 days was measured by the same method as in <Cell Adhesiveness Evaluation 1> described above.

human iPS cells [3] = assay: Evaluation of Maintenance of Undifferentiation (colony form, NANOG staining); conditions: for form of iPS cell colonies: FIG. 3, TESR2, subculture every six days; for NANOG expression (immunostaining): FIG. 4; for NANOG expression (immunostaining) / maintenance of undifferentiated state: cultured for 1 month
Protocol: iPS cells collected in the same manner as in <Cell Adhesiveness Evaluation 1> described above were suspended in TESR2. Induced pluripotent stem cells (iPS cells) were seeded on a 6-well plate (Tissue Culture-Treated, Falcon) to which each of the sample 1, the sample 2, the sample 5, the sample 6, and the sample 7 used in <Cell Adhesiveness Evaluation 1> described above was adsorbed in the same manner as in <Cell Adhesiveness Evaluation 1>, and were cultured in a CO2 incubator at 37° C. The culture medium was replaced by a fresh culture medium every day except the next day after the seeding. Subculture was performed by the same method as mentioned above every six days.
The cells were cultured under these conditions for 1 month, thereafter immobilized with 4% paraformaldehyde, and made to have membrane permeability enhanced with 1% Triton-X/PBS. Blocking treatment was performed with an Image IT Signal Enhancer (Invitrogen), followed by adding an anti-human NANOG antibody (AF1997, R&D Systems, Inc), ALEXA FLUOR 555-CONJUGATE rabbit anti-goat IgG antibody (Invitrogen), and DAPI (Dojindo Laboratories), by performing labeling, and by photographing the cells with a fluorescence microscope.
In each of FIG. 3 and FIG. 4, “A”, “B”, “C” “D”, and “E” show iPS cells cultured on RCP-1, iPS cells cultured on RCP-11, iPS cells cultured on the natural human vitronectin, iPS cells cultured on rinaminin-5, and iPS cells cultured on rLaminin-511, respectively. Scale bar: 100 μm. In FIG. 3, overall colony images are shown in the left column, while magnified images are shown in the right column; and in FIG. 4, DAPI-stained images are shown in the left column while anti-NANOG antibody-stained images are shown in the right column. Scale bars in FIGS. 3 and 4: 200 μm.

For CCTDYTAECKPQVTRGDVFT [Peptide-5], the “inhibition of cell adhesion to natural vitronectin (in words)” value (“inhibition of cell adhesion” below) (human iPS cells [1]) was “significantly inhibited”.

CCTDYTAECKPQVTRGEVFT [Peptide-7] was tested, and the “inhibition of cell adhesion” value (human iPS cells [1]) was “adhesion inhibition did not occur”.

In the case of DKKCQCDELCSYYQSCCTDY [Peptide-4], the “inhibition of cell adhesion” value (human iPS cells [1]) is reported as “significantly inhibited”.

With DQESCKGRCTEGFNVDKKCQ [Peptide-1] the “inhibition of cell adhesion” value (human iPS cells [1]) was “adhesion inhibition did not occur”.

For EGFNVDKKCQCDELCSYYQS [Peptide-3], the “inhibition of cell adhesion” value (human iPS cells [1]) was “adhesion inhibition did not occur”.

In the case of KGRCTEGFNVDKKCQCDELC [Peptide-2], the “inhibition of cell adhesion” value (human iPS cells [1]) is reported as “adhesion inhibition did not occur”.

With “Laminin-511: recombinant laminin (Human Recombinant Laminin-511: Biolamina)” the “The Number (%) of Cells after 3 Days” value (human iPS cells [2]; addition amount 1.28 μg/cm^2) was 56.8%.

B1: RCP-6: recombinant polypeptide, Met + human vitronectin positions 1-55, 269-459, C274S (protein)
chain: MDQESCKGRCTEGFNVDKKCQCDELCSYYQSCCTDYTAECKPQVTRGDVFTMPEDESQEESEGSSLSAVFEHFAMMQRDSWEDIFELLFWGRTSAGTRQPQFISRDWHGVPGQVDAAMAGRIYISGMAPRPSLAKKQRFRHRNRKGYRSQRGHSRGRNQNSRRPSRATWLSLFSSEESNLGANNYDDYRMDWLVPATSEPIQSVFFFSGDKYYRVNLRTRRVDTVDPPYPRSIAQYWLGSPAPGHL
modifications: Synthetic Peptide RCP-6
notes: recombinant polypeptide, Met + human vitronectin positions 1-55, 269-459, C274S
In the case of B1, the “The Number (%) of Cells after 3 Days” value (human iPS cells [2]; addition amount 20 μg/cm^2) is reported as 70.5%.

B2: RCP-11: comparative recombinant polypeptide, GPLG + positions 1-459; corresponds to the sequence of natural human vitronectin (protein)
chain: GPLGDQESCKGRCTEGFNVDKKCQCDELCSYYQSCCTDYTAECKPQVTRGDVFTMPEDEYTVYDDGEEKNNATVHEQVGGPSLTSDLQAQSKGNPEQTPVLKPEEEAPAPEVGASKPEGIDSRPETLHPGRPQPPAEEELCSGKPFDAFTDLKNGSLFAFRGQYCYELDEKAVRPGYPKLIRDVWGIEGPIDAAFTRINCQGKTYLFKGSQYWRFEDGVLDPDYPRNISDGFDGIPDNVDAALALPAHSYSGRERVYFFKGKQYWEYQFQHQPSQEECEGSSLSAVFEHFAMMQRDSWEDIFELLFWGRTSAGTRQPQFISRDWHGVPGQVDAAMAGRIYISGMAPRPSLAKKQRFRHRNRKGYRSQRGHSRGRNQNSRRPSRATWLSLFSSEESNLGANNYDDYRMDWLVPATCEPIQSVFFFSGDKYYRVNLRTRRVDTVDPPYPRSIAQYWLGCPAPGHL
modifications: Synthetic Peptide CRP-11
B2 was tested, and the “number of cells smaller than that of RCP-1, as fraction of RCP-1” value (human iPS cells [2]; culture day 8, FIG. 2) was “around ⅓”, the “form of iPS cell colonies” value (human iPS cells [3]) was “homogeneous colony and a form characteristic for undifferentiated cells having a high nucleus occupying rate” and the “NANOG expression (immunostaining)” value (human iPS cells [3]) was “strongly expressed NANOG in an overall colony”. For the same molecule, the “maintenance of undifferentiated state” value (human iPS cells [3]) was “undifferentiated state was favorably maintained”.

B3: RCP-5: recombinant polypeptide, Met + human vitronectin positions 1-55, 302-341, 342-373 (protein)
chain: MDQESCKGRCTEGFNVDKKCQCDELCSYYQSCCTDYTAECKPQVTRGDVFTMPEDEFWGRTSAGTRQPQFISRDWHGVPGQVDAAMAGRIYISGMAPRPSLAKKQRFRHRNRKGYRSQRGHSRGRNQN
modifications: Synthetic Peptide RCP-5
For B3, the “The Number (%) of Cells after 3 Days” value (human iPS cells [2]; addition amount 10 μg/cm^2) was 121.2%.

B4: RCP-17: recombinant polypeptide, Met + SEQ ID NO:38; vitronectin positions 1-55, 269-277, 295-341, 342-373, C274S (printed as RCP-11 in Table 2) (protein)
chain: MDQESCKGRCTEGFNVDKKCQCDELCSYYQSCCTDYTAECKPQVTRGDVFTMPEDESQEESEGSEDIFELLFWGRTSAGTRQPQFISRDWHGVPGQVDAAMAGRIYISGMAPRPSLAKKQRFRHRNRKGYRSQRGHSRGRNQN
modifications: Synthetic Peptide RCP-17
In the case of B4, the “The Number (%) of Cells after 3 Days” value (human iPS cells [2]; addition amount 5 μg/cm^2) is reported as 153.5%.

B5: RCP-7: recombinant polypeptide, Met + human vitronectin positions 1-55, 269-373, C274S (protein)
chain: MDQESCKGRCTEGFNVDKKCQCDELCSYYQSCCTDYTAECKPQVTRGDVFTMPEDESQEESEGSSLSAVFEHFAMMQRDSWEDIFELLFWGRTSAGTRQPQFISRDWHGVPGQVDAAMAGRIYISGMAPRPSLAKKQRFRHRNRKGYRSQRGHSRGRNQN
modifications: Synthetic Peptide RCP-7
notes: recombinant polypeptide, Met + human vitronectin positions 1-55, 269-373, C274S
With B5 the “The Number (%) of Cells after 3 Days” value (human iPS cells [2]; addition amount 5 μg/cm^2) was 89.9%.

B6: RCP-8: recombinant polypeptide, Met + human vitronectin positions 1-55, 269-373, 374-379, C274S (protein)
chain: MDQESCKGRCTEGFNVDKKCQCDELCSYYQSCCTDYTAECKPQVTRGDVFTMPEDESQEESEGSSLSAVFEHFAMMQRDSWEDIFELLFWGRTSAGTRQPQFISRDWHGVPGQVDAAMAGRIYISGMAPRPSLAKKQRFRHRNRKGYRSQRGHSRGRNQNSRRPSR
modifications: Synthetic Peptide RCP-8
notes: recombinant polypeptide, Met + human vitronectin positions 1-55, 269-373, 374-379, C274S
With B6 the “The Number (%) of Cells after 3 Days” value (human iPS cells [2]; addition amount 5 μg/cm^2) was 171.0%.

B7: RCP-3: recombinant polypeptide, Met + human vitronectin positions 1-55, 322-341, 342-373 (protein)
chain: MDQESCKGRCTEGFNVDKKCQCDELCSYYQSCCTDYTAECKPQVTRGDVFTMPEDEGVPGQVDAAMAGRIYISGMAPRPSLAKKQRFRHRNRKGYRSQRGHSRGRNQN
modifications: Synthetic Peptide RCP-3
For B7, the “The Number (%) of Cells after 3 Days” value (human iPS cells [2]; addition amount 20 μg/cm^2) was 109.7%.

B8: RCP-2: recombinant polypeptide, Met + human vitronectin positions 1-55, 342-373 (protein)
chain: MDQESCKGRCTEGFNVDKKCQCDELCSYYQSCCTDYTAECKPQVTRGDVFTMPEDEPRPSLAKKQRFRHRNRKGYRSQRGHSRGRNQN
modifications: Synthetic Peptide RCP-2
B8 was tested, and the “The Number (%) of Cells after 3 Days” value (human iPS cells [2]; addition amount 20 μg/cm^2) was 81.7%.

B9: RCP-4: recombinant polypeptide, Met + human vitronectin positions 1-55, 312-341, 342-373 (protein)
chain: MDQESCKGRCTEGFNVDKKCQCDELCSYYQSCCTDYTAECKPQVTRGDVFTMPEDEQPQFISRDWHGVPGQVDAAMAGRIYISGMAPRPSLAKKQRFRHRNRKGYRSQRGHSRGRNQN
modifications: Synthetic Peptide RCP-4
B9 was tested, and the “The Number (%) of Cells after 3 Days” value (human iPS cells [2]; addition amount 20 μg/cm^2) was 120.7%.

B10: Natural vitronectin: human vitronectin (extracted from human plasma, BD Biosciences) (protein, listed as Homo sapiens)
chain: DQESCKGRCTEGFNVDKKCQCDELCSYYQSCCTDYTAECKPQVTRGDVFTMPEDEYTVYDDGEEKNNATVHEQVGGPSLTSDLQAQSKGNPEQTPVLKPEEEAPAPEVGASKPEGIDSRPETLHPGRPQPPAEEELCSGKPFDAFTDLKNGSLFAFRGQYCYELDEKAVRPGYPKLIRDVWGIEGPIDAAFTRINCQGKTYLFKGSQYWRFEDGVLDPDYPRNISDGFDGIPDNVDAALALPAHSYSGRERVYFFKGKQYWEYQFQHQPSQEECEGSSLSAVFEHFAMMQRDSWEDIFELLFWGRTSAGTRQPQFISRDWHGVPGQVDAAMAGRIYISGMAPRPSLAKKQRFRHRNRKGYRSQRGHSRGRNQNSRRPSRATWLSLFSSEESNLGANNYDDYRMDWLVPATCEPIQSVFFFSGDKYYRVNLRTRRVDTVDPPYPRSIAQYWLGCPAPGHL
modifications: glycosylated, plasma-derived
With B10 the “form of iPS cell colonies” value (human iPS cells [3]) was “homogeneous colony and a form characteristic for undifferentiated cells having a high nucleus occupying rate”, the “NANOG expression (immunostaining)” value (human iPS cells [3]) was “strongly expressed NANOG in an overall colony” and the “maintenance of undifferentiated state” value (human iPS cells [3]) was “undifferentiated state was favorably maintained”.

Source: US10407662B2, “Method of culturing pluripotent stem cell, and polypeptide to be used therefor” (FUJIFILM Corporation, priority 2012, dated 2019)
